Values quoted from earlier work, collected in patent publication US20100247512A1, “Pericellular Collagenase Directs the 3-Dimensional Development of White Adipose Tissue” (The Regents of the University of Michigan, priority 2006, published 2010).
The star is where a group is joined. Decanoyl = CCCCCCCCCC(=O)*; CH2Cl = ClC*

Assays:
MT1-MMP = MT1-MMP (Homo sapiens, UniProt P50281); settings: Rosenthal, et al., 2005
pro-MT1-MMP = settings: Rosenthal, et al., 2005

Row | inhibition of MT1-MMP, blocking collagenolysis (MT1-MMP) | Substance | inhibition of intracellular conversion of pro-MT1-MMP to its active form (pro-MT1-MMP)
1 | poor inhibitor of MT1-MMP | TIMP-1: member of the tissue inhibitors of metalloproteinases (TIMPs), a family of natural protein MMP inhibitors | –
2 | – | deconyl-Arg-Val-Lys-Arg-CMK (Decanoyl-RVKR-CH2Cl) | inhibits the intracellular conversion of pro-MT1-MMP to its active form
